Data as given in publication PMC10193013, “Nonstructural N- and C-tails of Dbp2 confer the protein full helicase activities” (The Journal of Biological Chemistry, 2023).
Where “and” joins values, the source holds several entries; their conditions need not be identical. Equal entries are not always repeated.

Tests used:
[1] = biological target: T1, Dbp2 (full-length, Dbp2^1-546) (Saccharomyces cerevisiae, UniProt P24783); assay: coupled spectrophotometric ATPase assay; format: biochemical; settings: RNA-dependent: ssRNA R-S22 or RNA/DNA duplex R/D-D16; MgCl2 2 mM, ATP 1.5 mM, pH 7.5, 24 °C; turnover only
T1 construct: full-length 1-546; E. coli C2566H; His6-MBP tag cleaved with TEV, SP ion exchange; the smFRET mutant C141/C373 carries a C-terminal His6 tag

[2] = biological target: T2, Dbp2 (full-length, Dbp2^1-546) (Saccharomyces cerevisiae, UniProt P24783, R495A/R496A); assay: ATPase activity assay kit (free phosphate, […] nm); format: biochemical; settings: 16 bp RNA/DNA duplex 0.75 μM; MgCl2 2 mM, ATP 1.5 mM, pH 7.5, 24 °C; turnover only
T2 construct: full-length 1-546; E. coli C2566H; His6-MBP tag cleaved with TEV, SP ion exchange; the smFRET mutant C141/C373 carries a C-terminal His6 tag
T2 sequence (P24783 whole entry R495A/R496A): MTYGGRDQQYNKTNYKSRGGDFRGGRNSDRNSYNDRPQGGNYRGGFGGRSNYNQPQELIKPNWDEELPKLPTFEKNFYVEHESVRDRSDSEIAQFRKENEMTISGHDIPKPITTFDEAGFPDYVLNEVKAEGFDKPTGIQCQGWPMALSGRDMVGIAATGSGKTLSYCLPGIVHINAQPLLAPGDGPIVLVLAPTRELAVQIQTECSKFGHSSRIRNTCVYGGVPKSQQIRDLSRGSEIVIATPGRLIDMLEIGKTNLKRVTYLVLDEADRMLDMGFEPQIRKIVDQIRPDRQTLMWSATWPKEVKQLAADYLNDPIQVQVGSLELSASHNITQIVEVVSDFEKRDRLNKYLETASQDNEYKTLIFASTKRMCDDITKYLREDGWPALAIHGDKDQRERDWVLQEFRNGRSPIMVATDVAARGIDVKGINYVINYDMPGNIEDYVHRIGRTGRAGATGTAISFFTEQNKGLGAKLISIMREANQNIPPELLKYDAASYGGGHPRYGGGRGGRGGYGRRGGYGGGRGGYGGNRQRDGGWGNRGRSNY

[3] = biological target: T3, Dbp2 (full-length, Dbp2^1-546) (Saccharomyces cerevisiae, UniProt P24783, C168A/C206A/C219A); format: binding; settings: labelled protein immobilised via C-terminal His-tag antibody; no RNA; MgCl2 2 mM, pH 7.5
T3 construct: full-length 1-546; E. coli C2566H; His6-MBP tag cleaved with TEV, SP ion exchange; the smFRET mutant C141/C373 carries a C-terminal His6 tag
T3 sequence (P24783 whole entry C168A/C206A/C219A): as the sequence (P24783 whole entry R495A/R496A) above, with C168A, C206A, C219A, A495R, A496R counted along it

[4] = biological target: Dbp2 WT (Saccharomyces cerevisiae, UniProt P24783 1-546); assay: fluorescence anisotropy; Anisotropy: 25 mM Tris-HCl pH 7.5, 20 mM NaCl/30 mM KCl, 2 mM MgCl2, 1 mM DTT, 5 nM labelled nucleic acid, 25 C, 5 min; EMSA: 25 mM Tris-HCl pH 7.5, 30 mM KCl; settings: protein: recombinant, tags: His6-MBP removed by TEV
Dbp2 WT, sequence (P24783 whole entry): as the sequence (P24783 whole entry R495A/R496A) above, with A495R, A496R counted along it

[5] = biological target: Dbp2 53-496 (Saccharomyces cerevisiae, UniProt P24783 53-496); assay: as above; settings: protein: recombinant, tags: His6-MBP removed by TEV, label: 3' FAM
Dbp2 53-496, sequence (P24783 53-496): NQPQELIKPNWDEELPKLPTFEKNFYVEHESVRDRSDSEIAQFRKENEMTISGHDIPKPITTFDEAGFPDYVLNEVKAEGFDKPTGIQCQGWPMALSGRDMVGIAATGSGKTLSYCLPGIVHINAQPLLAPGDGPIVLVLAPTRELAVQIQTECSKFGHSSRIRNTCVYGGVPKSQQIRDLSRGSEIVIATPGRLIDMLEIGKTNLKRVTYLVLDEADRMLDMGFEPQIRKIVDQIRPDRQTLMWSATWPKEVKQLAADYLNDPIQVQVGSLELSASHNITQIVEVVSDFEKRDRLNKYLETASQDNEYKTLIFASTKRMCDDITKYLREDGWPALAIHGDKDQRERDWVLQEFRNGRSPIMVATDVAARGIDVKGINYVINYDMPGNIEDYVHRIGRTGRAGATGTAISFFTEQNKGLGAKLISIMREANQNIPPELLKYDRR

[6] = biological target: Dbp2 1-524 (Saccharomyces cerevisiae, UniProt P24783 1-524); assay: as above; settings: protein: recombinant, tags: His6-MBP removed by TEV, label: 3' FAM
[7] = biological target: Dbp2 1-530 (Saccharomyces cerevisiae, UniProt P24783 1-530); assay: as above; settings: protein: recombinant, tags: His6-MBP removed by TEV, label: 3' FAM
[8] = biological target: Dbp2 118-466 (Saccharomyces cerevisiae, UniProt P24783 118-466); assay: as above; settings: protein: recombinant, label: 3' FAM
Dbp2 118-466, sequence (P24783 118-466): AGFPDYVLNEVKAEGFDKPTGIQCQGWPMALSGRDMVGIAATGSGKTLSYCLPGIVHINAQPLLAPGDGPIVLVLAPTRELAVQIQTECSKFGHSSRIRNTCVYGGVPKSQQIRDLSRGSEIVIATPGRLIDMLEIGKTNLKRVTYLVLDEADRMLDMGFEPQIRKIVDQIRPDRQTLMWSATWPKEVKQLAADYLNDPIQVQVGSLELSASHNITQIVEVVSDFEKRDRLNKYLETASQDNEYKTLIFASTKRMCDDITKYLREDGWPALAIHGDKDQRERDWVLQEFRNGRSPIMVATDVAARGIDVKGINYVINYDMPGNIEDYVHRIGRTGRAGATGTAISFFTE

[9] = biological target: Dbp2 53-546 (Saccharomyces cerevisiae, UniProt P24783 53-546); assay: as above; settings: protein: recombinant; tags: His6-MBP removed by TEV; label: 3' FAM; G4
Dbp2 53-546, sequence (P24783 53-546): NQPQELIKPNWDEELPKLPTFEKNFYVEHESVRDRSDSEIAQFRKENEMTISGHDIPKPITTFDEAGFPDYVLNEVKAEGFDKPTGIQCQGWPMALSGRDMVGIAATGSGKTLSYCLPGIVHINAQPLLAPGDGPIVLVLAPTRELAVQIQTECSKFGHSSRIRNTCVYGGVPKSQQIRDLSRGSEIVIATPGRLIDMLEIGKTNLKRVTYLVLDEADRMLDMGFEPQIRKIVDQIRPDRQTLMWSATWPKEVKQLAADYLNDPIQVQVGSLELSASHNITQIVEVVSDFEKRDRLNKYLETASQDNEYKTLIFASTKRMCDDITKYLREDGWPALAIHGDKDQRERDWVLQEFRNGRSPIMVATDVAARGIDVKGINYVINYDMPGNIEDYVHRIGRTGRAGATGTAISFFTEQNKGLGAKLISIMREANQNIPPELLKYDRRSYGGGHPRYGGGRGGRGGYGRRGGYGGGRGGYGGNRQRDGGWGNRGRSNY

[10] = biological target: T4, MBP-Dbp2 497-546 (Saccharomyces cerevisiae, UniProt P24783 497-546); assay: as above; settings: protein: recombinant; tags: MBP fusion; label: 3' FAM; G4
T4 chain: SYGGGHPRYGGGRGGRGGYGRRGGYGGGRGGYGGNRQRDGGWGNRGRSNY

[11] = biological target: T5, MBP-Dbp2 1-52 (Saccharomyces cerevisiae, UniProt P24783 1-52); assay: as above; settings: protein: recombinant; tags: MBP fusion; label: 3' FAM; G4
T5 sequence: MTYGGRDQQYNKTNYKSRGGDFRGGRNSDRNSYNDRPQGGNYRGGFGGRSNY

[12] = biological target: Dbp2 1-514 (Saccharomyces cerevisiae, UniProt P24783 1-514); assay: as above; settings: protein: recombinant, tags: His6-MBP removed by TEV, label: 3' FAM
Dbp2 1-514, sequence (P24783 1-514): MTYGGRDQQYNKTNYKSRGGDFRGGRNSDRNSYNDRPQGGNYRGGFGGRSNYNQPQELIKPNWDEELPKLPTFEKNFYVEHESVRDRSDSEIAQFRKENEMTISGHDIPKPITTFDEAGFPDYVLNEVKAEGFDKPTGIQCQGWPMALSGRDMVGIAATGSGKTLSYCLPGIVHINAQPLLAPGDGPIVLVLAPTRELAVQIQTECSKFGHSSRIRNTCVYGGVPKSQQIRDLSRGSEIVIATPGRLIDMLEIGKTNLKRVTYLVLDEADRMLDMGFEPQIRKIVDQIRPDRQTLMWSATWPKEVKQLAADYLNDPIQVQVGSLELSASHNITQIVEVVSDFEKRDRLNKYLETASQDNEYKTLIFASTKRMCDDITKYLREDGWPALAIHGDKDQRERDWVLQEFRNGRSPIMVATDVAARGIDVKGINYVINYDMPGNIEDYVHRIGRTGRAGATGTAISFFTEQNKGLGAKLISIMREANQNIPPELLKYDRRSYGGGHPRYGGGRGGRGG

[13] = label: 3' FAM on DNA strand, blunt

## Nc1ncnc2c1ncn2[C@@H]1O[C@H](COP(=O)(O)OP(=O)(O)OP(=O)(O)O)[C@@H](O)[C@H]1O [ATP]
[1]
  coupled spectrophotometric ATPase assay: The RNA-dependent ATPase activities of Dbp2 were measured using a coupled spectrophotometric ATPase assay
[2]
  ATPase activity assay kit (free phosphate, 620 nm): the R495A/R496A double mutant also showed increased ATPase activity in vitro

## Nc1ncnc2c1ncn2[C@@H]1O[C@H](COP(=O)(O)OP(=O)(O)O)[C@@H](O)[C@H]1O [ADP]
[3]
  single-molecule FRET, Cy3/Cy5 on C141 and C373: The FRET distribution of Dbp2-ADP was similar to that of Dbp2-ADP·AlF4 except for a decrease

## CUCUGCUCGACG (ssRNA) [R-S12]
[4]; label: 3' FAM
  Kd: 72.1 ± 5.09 nM

## GGGUUAGGGUUAGGGUUAGGG (structured_RNA) [R-G4Tel]
[5]; G4
  binding result: no binding
[6]; G4
  Kd: 27.9 ± 2.66 nM
[7]; G4
  Kd: 19.2 ± 2.17 nM
[8]; G4
  binding result: no binding
[4]; label: 3' FAM, G4
  Kd: 12.2 nM and 12.7 nM
[9]
  Kd: 18.8 ± 0.56 nM
[10]
  Kd: 36.3 ± 5.1 nM
[11]
  Kd: 26 ± 1.5 nM
[12]; G4
  Kd: 63.5 ± 8.45 nM

## ACGGATGTCTAA (ssDNA) [D-S12]
[4]; label: 3' FAM
  Kd: 105 ± 1.9 nM

B1: R/D-D16 (DNA:RNA)
RNA: GAUCGUGACAUCCUUA
DNA: TAAGGATGTCACGATC
[4]; [13]
  Kd: 40.6 ± 4.65 nM

B2: D-D12 (dsDNA)
DNA 1: CGTCGAGCAGAG
DNA 2: CTCTGCTCGACG
[4]; label: 3' FAM on strand 2, blunt
  Kd: 178 ± 6.2 nM

## UUUUUUUUUUCUCUGCUCGACG (ssRNA) [R-S22]
[5]
  binding result: no binding
[6]
  Kd: 38.8 ± 4.35 nM
[7]
  Kd: 33.7 ± 6.63 nM
[8]
  binding result: no binding
[4]; label: 3' FAM
  Kd: 15.8 ± 0.66 nM
[12]
  Kd: 214 ± 18.4 nM

B3: R/D-D12 (DNA:RNA)
RNA: CGUCGAGCAGAG
DNA: CTCTGCTCGACG
[4]; [13]
  Kd: 73.9 ± 3.93 nM
